Laboratory results from the supplement of paper PMC12667976.
± gives the standard error.

B1: library; numbered along this chain (parent)
chain: MATDAALRRLLRLHRTEIAVAVDSAFPLLHALADHDVVPEDKFQETLHLKEKEGCPQAFHALLSWLLTQDSTAILDFWRVLFKDYNLERYGRLQPILDSFPKDVDLSQPRKGRKPPAVPKALVPPPRLPTKRKASEEARAAAPAALTPRGTASPGSQLKAKPPKKPESSAEQQRLPLGNGIQTMSASVQRAVAMSSGDVPGARGAVEGILIQQVFESGGSKKCIQVGGEFYTPSKFEDSGSGKNKARSSSGPKPLVRAKGAQGAAPGGGEARLGQQGSVPAPLALPSDPQLHQKNEDECAVCRDGGELICCDGCPRAFHLACLSPPLREIPSGTWRCSSCLQATVQEVQPRAEEPRPQEPPVETPLPPGLRSAGEEVRGPPGEPLAGMDTTLVYKHLPAPPSAAPLPGLDSSALHPLLCVGPEGQQNLAPGARCGVCGDGTDVLRCTHCAAAFHWRCHFPAGTSRPGTGLRCRSCSGDVTPAPVEGVLAPSPARLAPGPAKDDTASHEPALHRDDLESLLSEHTFDGILQWAIQSMARPAAPFPS

Variants of: B1
Assay: AIRE transcriptional activation functional score (insulin promoter-GFP; nonsense median 0, synonymous median 1) (normalised score); higher = higher AIRE activity (more reporter activation)
Conditions: with insulin promoter-GFP reporter in HEK293
Description: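 Deep mutational scan of full-length human AIRE (codon-optimized cDNA, DT-POPCode NNN libraries over three regions) integrated at a Bxb1 landing pad in HEK293 cells carrying an insulin core promoter-GFP reporter at a Flp-In site. Cells were sorted for the top 10% GFP about 14 days after transfection. Variant frequency log-ratios (select vs non-select, TileSeq) were rescaled so that the nonsense median is 0 and the synonymous median is 1, then averaged over biological replicates.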

Row | Variant | AIRE transcriptional activation functional score
1 | V199M | 1.18 ± 0.14
2 | G527V | 0.0961 ± 0.18
3 | A321H | 0.857 ± 0.15
4 | A321M | 1.58 ± 0.032
5 | A186S | 0.95 ± 0.17
6 | P367N | 0.956 ± 0.17
7 | A191S | 1.03 ± 0.35
8 | R351E | 0.835 ± 0.39
9 | A170L | 0.356 ± 0.53
10 | A170M | 0.0569 ± 0.083
11 | A399Q | 0.327 ± 0.12
12 | A399Y | -0.0769 ± 0.047
13 | D198M | 1.02 ± 0.086
14 | Q94A | 1.44 ± 0.23
15 | P282N | -0.335 ± 0.22
16 | P125N | 0.92 ± 0.2
17 | N179L | 0.991 ± 0.34
18 | R174I | 0.22 ± 0.17
19 | G431F | 1.14 ± 0.1
20 | T334N | 0.91 ± 0.15
21 | S107H | 1.33 ± 0.1
22 | A510K | 0.165 ± 0.099
23 | P56M | -0.903 ± 0.46
24 | F100Y | -0.017 ± 0.36

Row | Variant | AIRE transcriptional activation functional score
25 | F100S | 0.172 ± 0.45
26 | R113E | 0.975 ± 0.22
27 | L385E | 1.15 ± 0.1
28 | K159F | 1.44 ± 0.11
29 | W78H | 0.363 ± 0.52
30 | W78G | 0.214 ± 0.16
31 | V226H | 0.579 ± 0.27
32 | V226T | 0.799 ± 0.36
33 | G408K | 1.14 ± 0.025
34 | W455M | 0.774 ± 0.17
35 | Q342K | 1.04 ± 0.08
36 | V479D | 0.363 ± 0.13
37 | A300S | 0.968 ± 0.23
38 | R127C | 0.833 ± 0.084
39 | T130E | 0.325 ± 0.53
40 | T130G | 1.13 ± 0.6
41 | S234W | 0.775 ± 0.023
42 | P416D | -0.251 ± 0.11
43 | P416W | 1.5 ± 0.089
44 | P326E | 0.653 ± 0.13
45 | A61L | -0.166 ± 0.57
46 | L66M | 0.0543 ± 0.14
47 | E40G | -0.121 ± 0.23
48 | E40V | 0.0752 ± 0.28

Row | Variant | AIRE transcriptional activation functional score
49 | E237P | 0.729 ± 0.18
50 | P176D | -0.465 ± 0.61
51 | G150S | 1.63 ± 0.56
52 | Q189K | 0.969 ± 0.27
53 | E45G | 0.0251 ± 0.41
54 | A145E | 0.0573 ± 0.43
55 | D389M | -0.143 ± 0.096
56 | T344I | 0.748 ± 0.15
57 | A352V | 0.882 ± 0.31
58 | P407F | 1.2 ± 0.22
59 | P497M | 1.19 ± 0.15
60 | H396I | 1.17 ± 0.26
61 | H396L | 1.69 ± 0.1
62 | A493Q | 0.91 ± 0.25
63 | G274R | 0.983 ± 0.14
64 | R149T | 0.559 ± 0.36
65 | R316V | 0.904 ± 0.23
66 | D34T | -1.22 ± 0.19
67 | E167M | 1.68 ± 0.21
68 | E167A | 0.894 ± 0.18
69 | Q173H | 0.885 ± 0.53
70 | Q293W | 1.35 ± 0.054
71 | Q293M | 0.829 ± 0.075
72 | L366T | 1.17 ± 0.07

Row | Variant | AIRE transcriptional activation functional score
73 | S239A | 1.2 ± 0.52
74 | R473H | -0.49 ± 0.25
75 | E383C | 1.18 ± 0.1
76 | H523T | 1.37 ± 0.23
77 | V214P | 0.238 ± 0.098
78 | V123E | 0.862 ± 0.25
79 | G469C | 1.56 ± 0.064
80 | G469M | 1.18 ± 0.044
81 | R303L | 1.12 ± 0.2
82 | V104Q | 1.13 ± 0.11
83 | K111E | 0.792 ± 0.35
84 | C475Y | 0.0941 ± 0.16
85 | G260Y | 1.14 ± 0.18
86 | K245V | 1.32 ± 0.035
87 | K102V | 0.889 ± 0.42
88 | I211E | -0.399 ± 0.12
89 | A31T | -0.678 ± 1.2
90 | R465A | 0.476 ± 0.11
91 | F43P | 0.556 ± 0.46
92 | R378P | 0.932 ± 0.23
93 | A202E | 0.791 ± 0.25
94 | A202P | 0.867 ± 0.21
95 | G178T | 1.11 ± 0.67
96 | G277C | 1.38 ± 0.068

Row | Variant | AIRE transcriptional activation functional score
97 | M184T | 0.688 ± 0.47
98 | Q530N | 1.52 ± 0.11
99 | Q530I | 0.183 ± 0.36
100 | P466Q | 1.02 ± 0.13
101 | P466E | 0.232 ± 0.26
102 | G486E | 0.566 ± 0.18
103 | E347H | 1.32 ± 0.28
104 | A142K | 0.314 ± 0.24
105 | A142N | 0.413 ± 0.58
106 | M388P | 1.14 ± 0.17
107 | E216N | 1.75 ± 0.14
108 | E207L | 0.143 ± 0.19
109 | G218V | 1.1 ± 0.18
110 | F459E | 0.803 ± 0.1
111 | Q172T | 1.56 ± 1.1
112 | Q57R | 0.643 ± 0.75
113 | L341K | 0.983 ± 0.25
114 | L341C | 1.24 ± 0.16
115 | V362K | 1.11 ± 0.1
116 | P365E | 1.33 ± 0.12
117 | P365W | 1.45 ± 0.068
118 | S249D | 0.114 ± 0.48
119 | P280I | 0.993 ± 0.099
120 | G263C | 0.73 ± 0.28

Row | Variant | AIRE transcriptional activation functional score
121 | S464W | -0.451 ± 0.18
122 | E53T | 1.37 ± 0.61
123 | C223H | 0.784 ± 0.27
124 | S64P | 0.795 ± 0.47
125 | S64F | 0.0385 ± 0.17
126 | E229Q | 1.13 ± 0.11
127 | S474Y | 0.736 ± 0.19
128 | S474T | 0.317 ± 0.15
129 | V188F | 0.939 ± 0.095
130 | A432T | 0.81 ± 0.39
131 | P109T | 1.54 ± 0.29
132 | G435F | 0.364 ± 0.23
133 | L128G | 1.51 ± 0.26
134 | G379R | 0.719 ± 0.28
135 | L13T | 0.418 ± 0.36
136 | A461C | 0.883 ± 0.1
137 | A461F | 1.21 ± 0.17
138 | L406N | 1.18 ± 0.29
139 | V22C | -0.0794 ± 0.063
140 | A403F | 1.09 ± 0.12
141 | Q290P | 0.267 ± 0.4
142 | C472E | 0.216 ± 0.091
143 | L47R | -0.624 ± 0.19
144 | W335E | 1.3 ± 0.14

Row | Variant | AIRE transcriptional activation functional score
145 | P143H | 1.09 ± 0.38
146 | P481K | 1.02 ± 0.054
147 | P481I | 0.238 ± 0.19
148 | F77T | 0.0954 ± 0.74
149 | F77P | -0.416 ± 0.52
150 | R12T | -0.393 ± 0.21
151 | M536F | 1.95 ± 0.17
152 | D304T | 1.15 ± 0.11
153 | E363F | 1.34 ± 0.095
154 | R247N | 0.919 ± 0.15
155 | Q182S | 1.05 ± 0.52
156 | R272G | 0.842 ± 0.29
157 | P286F | 1.54 ± 0.18
158 | T151S | 1.01 ± 0.31
159 | S217M | 0.709 ± 0.02
160 | S248I | 1.16 ± 0.17
161 | L93H | -0.023 ± 0.32
162 | T3A | 1.09 ± 0.56
163 | L409V | 0.903 ± 0.31
164 | W531A | -0.104 ± 0.096
165 | P499T | 1.32 ± 0.28
166 | Q212P | 0.358 ± 0.29
167 | T390W | 1.51 ± 0.07
